Results: patent US20170267986A1, “GENERATION OF MANNOSE-6-PHOSPHATE CONTAINING RECOMBINANT ALPHA-N-ACETYL GLUCOSAMINIDASE” (SHIRE HUMAN GENETIC THERAPIES, INC., priority 2014, published 2017)
One block for each molecule: values may come before it.

Key:
CI-M6PR = molecular target: T1, CI-M6PR (Homo sapiens, UniProt P11717); test: Plate based sCI-M6PR binding assay (ELISA); conditions: treated with sGNPT under the same conditions as Naglu-Kif
T1 construct: the secreted sCI-M6PR was purified from the tissue culture medium; made in house
Description: (1) Generation of sCI-M6PR (soluble CI-M6PR)—Full length M6PR was expressed in genetically modified tissue culture cells, and the secreted sCI-M6PR was purified from the tissue culture medium using an aminophenyl-M6P conjugated resin (Beljaars et al., 1999). N-terminal sequencing and LC/MS/MS analysis of the obtained protein confirmed the amino acid sequence of the sCI-M6PR, and MALDI analysis confirmed that its molecular mass was 279,492 Da.
100 μl of sCI-M6PR(2.5 μg/ml) in DPBS were coated on MaxiSorp® Nunc-Immuno flat-bottom 96-well plates (Thermo Fisher Scientific, Inc., Sunnyvale, Calif.). After incubation for 1 hour at 37° C., the plates was washed with ELISA wash buffer (0.1% Tween-20 in DPBS). sCI-M6PR coated wells were blocked with 300 μl ELISA blocking buffer (DPBS, 2% BSA, 0.05% Tween 20) at 37° C. for 1 hour. Appropriate dilutions of sGNPT-modified Naglu-Kif (and rhNaglu as control) were made in blocking buffer and added to the wells. After 1 hour incubation at 37° C., the plates were washed with ELISA wash buffer, and 100 μl of HRP-conjugated rabbit anti-Naglu polyclonal antibody #2957 diluted in blocking buffer were added. After 1 hour incubation at 37° C., the plates was washed again with ELISA wash buffer. The ELISA was developed using TMB peroxidase substrate solution (KPL, Inc., Gaithersburg, Mass.) by following the manufacturer's protocol.
sGNPT transfers the phospho-GlcNAc group from UDP-GlcNAc to mannose sugar, and the resulting mannose-6-phosphate-GlcNAc is called the Capped-M6P. During the normal intracellular glycosylation process, the decapping enzyme (N-acetylglucosamine 1-phosphodiester α-N-acetyglucosaminidase) removes the GlcNAc from the Capped-M6P, to generate M6P. But without decapping, the Capped-M6P can also bind to CI-M6PR. Capped-M6P binds to domain 5 of CI-M6PR rather than to domain 3 or 9, as M6P does (Bohnsack et al. 2009). The amount of Capped-M6P on Naglu-Kif can be indirectly evaluated using a CI-M6PR plate binding assay. In this binding assay the affinity with which Naglu-Kif bound to CI-M6PR increased in proportion to the amount of sGNPT used (35 μg, 70 μg and 140 (corresponding to about 4.2 μM) (green, red and empty circle in FIG. 8, respectively)) to modify Naglu-Kif and thus the extent of Capped-M6P found on Naglu-Kif (FIG. 8). […] These binding reactions were repeated in two different buffer systems, i.e., in a sodium acetate buffer (40 mM NaAc pH 6.5, 10 mM MnCl2, 10 mM MgCl2) and in a Tris buffer (50 mM Tris pH 7.4, 10 mM MnCl2, 10 mM MgCl2), which gave similar results. Contrary to Naglu-Kif, rhNaglu was not phosphorylated by sGNPT under the same conditions due to the lack of high-mannose glycans.

rhNaglu = molecular target: T2, rhNaglu (Homo sapiens, UniProt P54802); test: Naglu substrate analysis: hydrolysis of UDP-sugars by rhNaglu, PAD-HPLC; format: biochemical; conditions: 0.8 mM UDP-GlcNAc, 37° C., 1 hour
T2 construct: The N-terminal 23 amino acids are cleaved as the precursor protein enters the endoplasmic reticulum, resulting in a mature form; made in house; host or cells: human fibrosarcoma HT1080 cell clone over-expressing rhNaglu
T2 sequence (P54802 24-743): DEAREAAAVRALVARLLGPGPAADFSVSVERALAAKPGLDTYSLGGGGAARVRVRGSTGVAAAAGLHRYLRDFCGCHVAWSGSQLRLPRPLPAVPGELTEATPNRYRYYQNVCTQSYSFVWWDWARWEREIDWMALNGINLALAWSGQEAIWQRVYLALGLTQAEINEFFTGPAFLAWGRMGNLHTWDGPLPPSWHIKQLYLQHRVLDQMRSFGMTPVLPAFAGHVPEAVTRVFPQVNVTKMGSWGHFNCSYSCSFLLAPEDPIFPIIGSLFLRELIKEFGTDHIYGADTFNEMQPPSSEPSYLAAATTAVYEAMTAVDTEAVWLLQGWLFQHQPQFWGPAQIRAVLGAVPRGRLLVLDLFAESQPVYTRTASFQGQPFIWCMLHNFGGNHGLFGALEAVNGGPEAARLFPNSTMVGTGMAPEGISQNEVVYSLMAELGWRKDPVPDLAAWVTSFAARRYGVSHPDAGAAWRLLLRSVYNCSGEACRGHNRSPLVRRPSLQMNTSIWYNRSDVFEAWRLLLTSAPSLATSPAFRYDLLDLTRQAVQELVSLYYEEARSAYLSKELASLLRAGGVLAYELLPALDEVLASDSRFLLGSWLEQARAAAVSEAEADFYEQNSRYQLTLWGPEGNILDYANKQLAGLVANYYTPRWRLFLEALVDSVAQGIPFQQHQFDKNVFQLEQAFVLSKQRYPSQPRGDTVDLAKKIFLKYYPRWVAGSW
Description: Recombinant human Naglu was co-incubated with uridine diphosphate N-acetylglucosamine (UDP-GlcNAc) or uridine diphosphate N-acetyl galactosamine (UDP-GalNAc). UDP-GlcNAc, GlcNAc (N-acetylglucosamine) and UDP-GalNAc were detected using PAD-HPLC (Pulsed Amperometric Detection-High Pressure Liquid Chromatography) that was modified after Chavaroche et al. 2011.
Recombinant human Naglu was dialyzed into Tris buffer (40 mM Tris pH 7.15, 100 mM NaCl, 4 mM MgCl2, and 4 mM MnCl2) and concentrated with VivaSpin® sample concentrators having a 30 kDa cut-off (Viva Products, Inc., Littleton, Mass.). […]
Samples were then subjected to centrifugation at 10,000 rpm, and the resulting supernatants were loaded on PA10 columns and detected by PAD-HPLC (Pulsed Amperometric Detection-High Pressure Liquid Chromatography) (Dionex ICS-3000 Ion Chromatography System (Thermo Fisher Scientific, Inc., Sunnyvale, Calif.)). […] The peak areas for the eluted UDP-GlcNAc were measured, and the reductions of the area under the curve (AUC) in response to increased concentrations of rhNaglu were determined (FIG. 1A). A new peak at 10.7 minutes was detected on the chromatograms of samples treated with concentrations of rhNaglu of 23.4 μg/ml and above. […] The peak areas for the eluted GlcNAc were measured, and the increases of the AUC in response to increased concentrations of rhNaglu were determined (FIG. 1B). […]

[1] = molecular target: T3, Naglu-Kif, a high-mannose-containing recombinant human Naglu (before sGNPT modification)
T3 chain: T2 sequence (P54802 24-743)

[2] = molecular target: T4, Recombinant human Naglu (rhNaglu)
T4 chain: T2 sequence (P54802 24-743)

binding to CI-M6PR (CI-M6PR): did not bind
minimum rhNaglu concentration required for detection of hydrolysis of UDP-GlcNAc (rhNaglu): 23.4 µg/mL
B1: rhNaglu: recombinant human alpha-N-acetyl-glucosaminidase purified from human fibrosarcoma HT1080 cells engineered to over-express it (protein)
chain: T2 sequence (P54802 24-743)

B2: Soluble human N-acetylglucosamine-1-phosphotransferase (sGNPT), HPC4 tagged (protein)
chain: DEDQVDPRLIDGKWSRDQYHVLFDSYRDNIAGKSFQNRLCLPMPIDVVYTWVNGTDLELLKELQQVREQMEEEQKAMREILGKNTTEPTKKSEKQLECLLTHCIKVPMLVLDPALPANITLKDLPSLYPSFHSASDIFNVAKPKNPSTNVSVVVFDSTKDVEDAHSGLLKGNSRQTVWRGYLTTDKEVPGLVLMQDLAFLSGFPPTFKETNQLKTKLPENLSSKVKLLQLYSEASVALLKLNNPKDFQELNKQTKKNMTIDGKELTISPAYLLWDLSAISQSKQDEDISASRFEDNEELRYSLRSIERHAPWVRNIFIVTNGQIPSWLNLDNPRVTIVTHQDVFRNLSHLPTFSSPAIESHIHRIEGLSQKFIYLNDDVMFGKDVWPDDFYSHSKGQKVYLTWPVPNCAEGCPGSWIKDGYCDKACNNSACDWDGGDCSGNSGGSRYIAGGGGTGSIGVGQPWQFGGGINSVSYCNQGCANSWLADKFCDQACNVLSCGFDAGDCGQDHFHELYKVILLPNQTHYIIPKGECLPYFSFAEVAKRGVEGAYSDNPIIRHASIANKWKTIHLIMHSGMNATTIHFNLTFQNTNDEEFKMQITVEVDTREGPKLNSTAQKGYENLVSPITLLPEAEILFEDIPKEKRFPKFKRHDVNSTRRAQEEVKIPLVNISLLPKDAQLSLNTLDLQLEHGDITLKGYNLSKSALLRSFLMNSQHAKIKNQAIITDETNDSLVAPQEKQVHKSILPNSLGVSERLQRLTFPAVSVKVNGHDQGQNPPLDLETTARFRVETHTQKTIGGNVTKEKPPSLIVPLESQMTKEKKITGKEKENSRMEENAENHIGVTEVLLGRKLQHYTDSYLGFLPWEKKKYFQDLLDEEESLKTQLAYFTDSKNRARYKRDTFADSLRYVNKILNSKFGFTSRKVPAHMPHMIDRIVMQELQDMFPEEFDKTSFHKVRHSEDMQFAFSYFYYLMSAVQPLNISQVFDEVDTDQSGVLSDREIRTLATRIHELPLSLQDLTGLEHMLINCSKMLPADITQLNNIPPTQESYYDPNLPPVTKSLVTNCKPVTDKIHKAYKDKNKYRFEIMGEEEIAFKMIRTNVSHVVGQLDDIRKNPRKFVCLNDNIDHNHKDAQTVKAVLRDFYESMFPIPSQFELPREYRNRFLHMHELQEWRAYRDKL
pmol M6P/pmol Naglu Kif (M6P monosaccharide quantitation by PAD-HPLC after in vitro phosphorylation; +70 ug GNPT, 50 mM Tris pH 7.4, 10 mM MnCl2, 10 mM MgCl2) (pmol M6P/pmol Naglu Kif) [1]: 1.45
pmol M6P/pmol Naglu Kif (M6P monosaccharide quantitation by PAD-HPLC after in vitro phosphorylation; +70 ug GNPT, 50 mM sodium acetate pH 6.5, 20 mM MnCl2) (pmol M6P/pmol Naglu Kif) [1]: 0.12
pmol M6P/pmol Naglu Kif (M6P monosaccharide quantitation by PAD-HPLC after in vitro phosphorylation; +140 ug GNPT, 50 mM sodium acetate pH 6.5, 20 mM MnCl2) (pmol M6P/pmol Naglu Kif) [1]: 0.64
in vitro phosphorylation by sGNPT [2]: rhNaglu was not phosphorylated by sGNPT under the same conditions due to the lack of high-mannose glycans
